Assay results: patent publication US20220340894A1 (CDR LIFE, published 2022)

Experiments:
[1] = molecular target: T1, HLA-A2/MAGE-A4 complex (HLA-A*02:01 extracellular domain, human β2m, MAGE-A4 peptide 230-239) (human, UniProt P04439 25-299 at identity 0.94); P61769 21-119); experiment: direct ELISA, plate coated with HLA-A2/MAGE-A4 complex, OD450 nm (top panel, 'Binding to HLA-A2/MAGE-A4', M0700-M0709)
T1 construct: also called MAGE-A4/HLA-A2 complex; pMHC
Experimental: (§1) All available hits were evaluated for their ability to bind MAGE-A4/HLA-A2 complex and a control peptide/HLA-A2 complex in a direct binding ELISA assay. […] Briefly, 96 well ELISA plates were coated with purified human MAGE-A4/HLA-A2 complex or control HLA-A2 complex. Serial dilutions of antibody molecules were added to the plate and detected by an anti-kappa light chain-HRP (Invitrogen) followed by goat anti-rabbit IgG(H+L) HRP (Southern Biotech). […] All tested molecules are rabbit-derived antibodies that are representative of antibodies identified from the nucleic acid libraries described herein.

[2] = molecular target: T1, HLA-A2/MAGE-A4 complex (HLA-A*02:01 …); experiment: direct ELISA, plate coated with HLA-A2/MAGE-A4 complex, OD450 nm (second panel, 'Binding to HLA-A2/MAGE-A4', M0710-M0766)
Experimental: as §1

[3] = molecular target: T2, MAGE-A4 peptide-HLA-A2 complex presented on cells (human); experiment: flow cytometry on T2 cells pulsed with MAGE-A4 peptide; relative MFI = binding over peptide loading (BB7.2)
T2 construct: whole, on cells; Used both for T2 cells pulsed with the peptide and for tumour cell lines that present it themselves; also called MAGE-A4 positive/HLA-A2 positive cells
Experimental: (§2) TAP-deficient T2 cells were pulsed with HLA-A2-restricted peptides (MAGE-A4 or control peptides) and incubated with MAGE-A4 binders followed by fluorophore-labeled specific detection antibodies and analysis by flow cytometry.
(§3) Briefly, T-B hybrid T2 cells were incubated with serum-free RPMI1640 medium containing MAGE-A4 or control peptides. […] Peptide loading efficiency was verified by using the ratio between median fluorescent intensity (MFI) of HLA-A2-binding antibody BB7.2 on peptide loaded T2 cells and MFI of unloaded T2 cells (>1). T2 cells were incubated with each of the specific antibodies followed by fluorophore-labeled detection antibodies (anti-kappa light chain or anti-Flag). The cells were fixed and fluorescence was measured by flow cytometry.

[4] = molecular target: T3, control peptide 1 (Ctrl.1, …) displayed by HLA-A2 on T2 cells (human); experiment: flow cytometry on T2 cells pulsed with control peptide 1; relative MFI = binding over peptide loading (BB7.2)
T3 construct: whole, on cells
Experimental: as §2, §3

[5] = molecular target: T4, control peptide 2 (Ctrl.2, …) displayed by HLA-A2 on T2 cells (human); experiment: flow cytometry on T2 cells pulsed with control peptide 2; relative MFI = binding over peptide loading (BB7.2)
T4 construct: whole, on cells
Experimental: as §2, §3

[6] = molecular target: T3, control peptide 1 (Ctrl.1, …) displayed …; experiment: flow cytometry on T2 cells pulsed with control peptide 1; relative MFI = binding over peptide loading (BB7.2); antibody concentration not given
Experimental: as §2, §3

[7] = molecular target: T4, control peptide 2 (Ctrl.2, …) displayed …; experiment: flow cytometry on T2 cells pulsed with control peptide 2; relative MFI = binding over peptide loading (BB7.2); antibody concentration not given
Experimental: as §2, §3

[8] = molecular target: T5, control peptide 3 (Ctrl.3, …) displayed by HLA-A2 on T2 cells (human); experiment: flow cytometry on T2 cells pulsed with control peptide 3; relative MFI = binding over peptide loading (BB7.2); antibody concentration not given
T5 construct: whole, on cells
Experimental: as §2, §3

binding result [1] | binding result [2] | binding result [3] | Binder | further results
binds |  |  | M0705 (Fab, V domains shown) VH: QQQLVESGGRLVTPGTPLTLTCTASGIDLNSNAMSWVRQGPGKGLEWIGDIWSGGYTDYASWAKGRFTISKTSTTVDLKMTSLTAADTATYFCARDRLAGDGVVDYDLWGQGTLVTVSS VL: ELDMTQTPASVEVAVGGTVTIKCQASQNIYSNLAWYQQKPGQRPKLLIYGASTLASGVPSRFKGSGSGTEYTLTINGVQAADAATYYCQQGFSSSNVDNVFGGGTEVVVKR | 
 |  |  | M0702 (Fab, V domains shown) VH: QEQLEESGGGLVTPGTPLTLTCTASGFSLSSYAMIWVRQAPGKGLEWIGTINDGGTAFYANWVKGRFTISRTSTTVDLKMTSPTTEDTATYFCARAYGSNGDVYWGYVNLWGQGTLVTVSS VL: ELVMTQTPASVSEPVGGTVTIKCQASQSIGSNLAWYQQKPGQPPKLLIYAAANLASGVSSRFKGSRSGTEYTLTISGVQAADAATYYCQQGYSSSNVANVFGGGTELEILR | EC50 (read off the curve) [1]: ~0.6 nM
 | binds |  | M0766 (Fab, V domains shown) VH: PEQLEESGGGLVTPGGVLTLTCTASGFSFSSYGVNWVRQAPGKGLEWIGFIFGDGTTYYANWAKGRFTISKTSTTVDLKMTSPTTEDTATYFCARDGYGGYDYIINLWGQGTLVTVSS VL: AQVLTQTPASVSAAVGGTVSISCQSSQSVVNNNWLAWYQQKPGQPPKLLIYKASTLESGVPSRFKGSGSGTQFTLTISGVQADDAATYYCLGEFSCSSADCHAFGGGTELEILR | 
binds |  |  | M0707 (Fab, V domains shown) VH: QQQLEESGGGLVTPGTPLTLTCTVSGIDLSSYAMGWVRQAPGKGLEWIGTINDGGSAFYASWVKGRFTISRTSTTVDLKITSPTAEDTATYFCAKTYGTNGDVYWGYFNLWGQGTLVTVSS VL: ELVMTQTPASVSEPVGGTVTIKCQASQSIGSNLAWYQQKPGQPPKLLIYYESILASGVPSRFSGSGSGTEYTLTISGAQADDAATYYCQQGYSSSNILNAFGGGTEVVVKR | 
binds |  | binds | M0709 (Fab, V domains shown) VH: QSVKESGGRLVTPGTPLTLTCTVSGFSLSNYAMSWVRQAPGKGLEYIGIVSSGGTTYYASWAKGRFTISKTSTTVDLKITSPTTEDTATYFCAKDLYYGPTTYSAFNLWGQGTLVTVSS VL: SELVLTQPQSVSGSLGQTVSISCKRARDNIEDYYVHWYQQHPGKTPTIVIHKDDQRPSGVPDRFSGSIDSTSNSASLTITGLLAEDEADYFCQSFDNDASPVFGGGTQLTVTG | binding result [4]: binds; binding result [5]: binds
 | binds | binds | M0763 (Fab, V domains shown) VH: QSVKESGGRLVTPGTPLTLTCTVSGFSLSNYAMSWVRQAPGKGLEYIGIVSSGGTTYYASWAKGRFTISKTSTTVDLKITSPTTEDTATYFCAKDLYYGPTTYSAFNLWGQGTLVTVSS VL: SELVLTQPASVQVNLGQTVSLTCTADTLSRSYASWYQLKPGQAPVLLIYRDTSRPSGVPDRFSGSSSGNTATLTISGAQAGDEGDYVCATSDGSGSNFQLFGGGTQLTVTG | binding result [6]: no binding; binding result [7]: no binding; binding result [8]: no binding
